Laboratory results from patent US20240132591A1 (PANDION OPERATIONS, published 2024).

T1: Human MAdCAM (human, UniProt Q13477 19-317, limits assumed)
T1 construct: also called huMAdCAM; human MAdCAM-1
T1 sequence (looked up): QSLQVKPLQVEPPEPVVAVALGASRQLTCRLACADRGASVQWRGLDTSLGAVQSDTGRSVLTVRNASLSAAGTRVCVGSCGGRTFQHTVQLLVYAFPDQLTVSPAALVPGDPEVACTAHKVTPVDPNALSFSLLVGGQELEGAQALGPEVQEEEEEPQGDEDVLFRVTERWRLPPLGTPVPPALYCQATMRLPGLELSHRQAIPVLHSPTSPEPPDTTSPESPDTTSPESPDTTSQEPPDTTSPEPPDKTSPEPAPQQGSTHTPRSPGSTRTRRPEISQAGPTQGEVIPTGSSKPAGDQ

B1: PMAB21 (bispecific antibody, human IgG1, kappa)
heavy: EVQLLESGGGLVQPGGSLRLSCAASGFTFSNSDMSWVRQAPGKGLEWVSGITISGGSTYYADSVKGRFTISRDNSKNTLYLQMNSLRAEDTAVYYCARGRGGSGWLDYWGQGTLVTVSSASTKGPSVFPLAPSSKSTSGGTAALGCLVKDYFPEPVTVSWNSGALTSGVHTFPAVLQSSGLYSLSSVVTVPSSSLGTQTYICNVNHKPSNTKVDKKVEPKSCDKTHTCPPCPAPEAAGAPSVFLFPPKPKDTLMISRTPEVTCVVVDVSHEDPEVKFNWYVDGVEVHNAKTKPREEQYNSTYRVVSVLTVLHQDWLNGKEYKCKVSNKALPAPIEKTISKAKGQPREPQVYTLPPSREEMTKNQVSLTCLVKGFYPSDIAVEWESNGQPENNYKTTPPVLDSDGSFFLYSKLTVDKSRWQQGNVFSCSVMHEALHNHYTQKSLSLSPGGGGGSGGGGSGGGGSEVQLLESGGGLVQPGGSLRLSCAASGFTFSDFAMHWVRQAPGKGLEWISYISGDSGYTNYADSVKGRFTISRDNSKNTLYLQMNSLRAEDTAVYYCARDRPYYYYMDVWGKGTTVTVSSGGGGSGGGGSGGGGSGGGGSDIQMTQSPSSLSASVGDRVTITCRASQSVSRSLAWYQQKPGKAPKLLIYAASSLQSGVPSRFSGSGSGTDFTLTISSLQPEDFATYYCQQYKSYPVTFGQGTKVEIK
light: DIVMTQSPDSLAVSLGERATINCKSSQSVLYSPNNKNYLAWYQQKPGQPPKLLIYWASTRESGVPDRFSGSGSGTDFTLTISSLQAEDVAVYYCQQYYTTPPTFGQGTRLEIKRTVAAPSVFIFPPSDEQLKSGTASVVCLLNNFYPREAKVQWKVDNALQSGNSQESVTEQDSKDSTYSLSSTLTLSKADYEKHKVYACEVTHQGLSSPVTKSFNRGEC
B2: PMAB38 (bispecific antibody, human IgG1, kappa)
heavy: EVQLLESGGGLVQPGGSLRLSCAASGFTFSNSDMSWVRQAPGKGLEWVSGITISGGSTYYADSVKGRFTISRDNSKNTLYLQMNSLRAEDTAVYYCARGRGGSGWLDYWGQGTLVTVSSASTKGPSVFPLAPSSKSTSGGTAALGCLVKDYFPEPVTVSWNSGALTSGVHTFPAVLQSSGLYSLSSVVTVPSSSLGTQTYICNVNHKPSNTKVDKKVEPKSCDKTHTCPPCPAPEAAGAPSVFLFPPKPKDTLMISRTPEVTCVVVDVSHEDPEVKFNWYVDGVEVHNAKTKPREEQYNSTYRVVSVLTVLHQDWLNGKEYKCKVSNKALPAPIEKTISKAKGQPREPQVYTLPPSREEMTKNQVSLTCLVKGFYPSDIAVEWESNGQPENNYKTTPPVLDSDGSFFLYSKLTVDKSRWQQGNVFSCSVMHEALHNHYTQKSLSLSPGGGGGSGGGGSGGGGSEVQLLESGGGLVQPGGSLRLSCAASGFTFSDFWMHWVRQAPGKGLEWISYISGDSGYTNYADSVKGRFTISRDNSKNTLYLQMNSLRAEDTAVYYCARDRPYYYYMDVWGKGTTVTVSSGGGGSGGGGSGGGGSGGGGSDIQMTQSPSSLSASVGDRVTITCRASQSVSRYLAWYQQKPGKAPKLLIYAASSLQSGVPSRFSGSGSGTDFTLTISSLQPEDFATYYCQQYKSYPVTFGQGTKVEIK
light: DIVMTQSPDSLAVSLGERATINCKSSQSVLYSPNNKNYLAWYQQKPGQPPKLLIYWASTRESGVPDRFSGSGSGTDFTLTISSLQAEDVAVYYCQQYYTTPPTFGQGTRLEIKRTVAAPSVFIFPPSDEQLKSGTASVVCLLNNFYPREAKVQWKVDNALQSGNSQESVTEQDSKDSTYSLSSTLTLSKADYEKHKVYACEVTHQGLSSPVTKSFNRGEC
B3: PMAB39 (bispecific antibody, human IgG1, kappa)
heavy: EVQLLESGGGLVQPGGSLRLSCAASGFTFSNSDMSWVRQAPGKGLEWVSGITISGGSTYYADSVKGRFTISRDNSKNTLYLQMNSLRAEDTAVYYCARGRGGSGWLDYWGQGTLVTVSSASTKGPSVFPLAPSSKSTSGGTAALGCLVKDYFPEPVTVSWNSGALTSGVHTFPAVLQSSGLYSLSSVVTVPSSSLGTQTYICNVNHKPSNTKVDKKVEPKSCDKTHTCPPCPAPEAAGAPSVFLFPPKPKDTLMISRTPEVTCVVVDVSHEDPEVKFNWYVDGVEVHNAKTKPREEQYNSTYRVVSVLTVLHQDWLNGKEYKCKVSNKALPAPIEKTISKAKGQPREPQVYTLPPSREEMTKNQVSLTCLVKGFYPSDIAVEWESNGQPENNYKTTPPVLDSDGSFFLYSKLTVDKSRWQQGNVFSCSVMHEALHNHYTQKSLSLSPGGGGGSGGGGSGGGGSEVQLLESGGGLVQPGGSLRLSCAASGFTFSDFWMHWVRQAPGKGLEWISYISGDSGYTNYADSVKGRFTISRDNSKNTLYLQMNSLRAEDTAVYYCARDRPYYYYMDVWGKGTTVTVSSGGGGSGGGGSGGGGSGGGGSDIQMTQSPSSLSASVGDRVTITCRASQSVSRSLNWYQQKPGKAPKLLIYAASSLQSGVPSRFSGSGSGTDFTLTISSLQPEDFATYYCQQYKSYPVTFGQGTKVEIK
light: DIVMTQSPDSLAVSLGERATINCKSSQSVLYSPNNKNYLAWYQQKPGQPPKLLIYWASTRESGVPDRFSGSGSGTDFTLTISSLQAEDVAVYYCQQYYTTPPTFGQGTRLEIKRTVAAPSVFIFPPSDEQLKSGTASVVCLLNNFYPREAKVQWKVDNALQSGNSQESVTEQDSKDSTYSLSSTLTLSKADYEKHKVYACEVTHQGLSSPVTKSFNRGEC

The binders below were run against T1, Human MAdCAM (assay: BLI Octet, AHC capture).
B1: no binding (tested: 300 nM top concentration). B2: no binding (tested: 200 nM top concentration). B3: no binding (tested: 200 nM top concentration).
